Here are results for 1 molecule from patent publication US20060134756A1 (ZymoGenetics, published 2006).

The target in this assay is T1, CRF2-4/IL-22RA heterodimeric receptor on BaF3 cells (BaF3/CRF2-4/IL-22RA cells) (human, UniProt Q08334 20-325, limits assumed).
T1 sequence 1: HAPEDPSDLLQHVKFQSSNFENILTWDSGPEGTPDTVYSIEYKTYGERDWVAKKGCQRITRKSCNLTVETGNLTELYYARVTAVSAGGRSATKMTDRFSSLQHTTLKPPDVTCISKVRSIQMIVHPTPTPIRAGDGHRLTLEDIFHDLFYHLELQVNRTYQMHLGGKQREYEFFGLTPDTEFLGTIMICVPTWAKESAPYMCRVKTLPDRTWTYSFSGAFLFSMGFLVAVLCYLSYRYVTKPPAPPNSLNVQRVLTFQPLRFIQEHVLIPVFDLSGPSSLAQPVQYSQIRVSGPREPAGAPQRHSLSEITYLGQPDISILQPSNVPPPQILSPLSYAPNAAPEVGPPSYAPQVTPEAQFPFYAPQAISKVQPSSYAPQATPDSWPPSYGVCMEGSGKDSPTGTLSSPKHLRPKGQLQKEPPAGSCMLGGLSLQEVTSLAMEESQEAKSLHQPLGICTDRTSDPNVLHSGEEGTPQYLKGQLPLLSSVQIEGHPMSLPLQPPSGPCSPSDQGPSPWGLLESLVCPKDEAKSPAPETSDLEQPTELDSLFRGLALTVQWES
T1 sequence 2: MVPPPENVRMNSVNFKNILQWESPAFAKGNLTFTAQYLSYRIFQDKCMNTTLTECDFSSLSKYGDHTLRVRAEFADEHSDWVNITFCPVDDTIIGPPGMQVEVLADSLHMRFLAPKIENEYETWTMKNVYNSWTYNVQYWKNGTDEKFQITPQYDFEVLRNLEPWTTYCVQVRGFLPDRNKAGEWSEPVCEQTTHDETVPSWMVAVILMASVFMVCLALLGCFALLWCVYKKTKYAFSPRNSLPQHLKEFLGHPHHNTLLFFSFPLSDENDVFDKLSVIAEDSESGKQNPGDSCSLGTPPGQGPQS
Description: cell-based or functional assay.

B1: IL-22-CEE (ligand)
chain: LLLALLVQGGAAAPISSHCRLDKSNFQQPYITNRTFMLAKEASLADNNTDVRLIGEKLFHGVSMSERCYLMKQVLNFTLEEVLFPQSDRFQPYMQEVVPFLARLSNRLSTCHIEGDDLHIQRNVQKLKDTVKKLGESGEIKAIGELEYMPME
In the case of B1, the “proliferation of BaF3/CRF2-4/IL-22RA cells (Alamar Blue), IL-22-CEE at 0.06 ng/ml” value was around 2 fold over background.
